Experimental data as given in patent US20250034264A1, “REGULATING T CELL IMMUNE RESPONSE THROUGH IGF-I RECEPTOR (IGF-1R)” (The Regents of the University of Michigan, priority 2021, published 2025).

Experiments:
Assay type in all cases: cell-based, human
[1] = tested on: CD34+ fibrocytes; assay: MHC II, CD80, CD86, PD-L1 expression in cultured fibrocytes (RT-qPCR, flow cytometry); conditions: rhSlit2 50 ng/ml, 5 to 7 d
Source text: Fibrocyte and T cell isolation and cultivation. Peripheral blood mononuclear cells (PBMCs) were obtained from the venous circulation of clinic patients with GD, TAO or from healthy donors after obtaining informed consent. PBMCs were also obtained from Red Cross donor plasmapheresis filters. They were isolated by Ficoll-Histopaque (Sigma-Aldrich, St. Louis, MO) density gradient centrifugation. Fibrocytes were cultivated as described (Bucala, R, et al., (1994) Mol Med 1, 71-81, incorporated herein by reference in its entirety) except that culture substrata remained uncoated with fibronectin, as previously described (Douglas, R. S., et al. (2010) The Journal of clinical endocrinology and metabolism 95, 430-438). Isolated PBMCs (1×10^6-1×107) were inoculated in six-well plates covered with DMEM containing 10% FBS and incubated in 10-14 days. Adherent monolayers (<5% of the starting population) were washed with PBS and detached using accutase (Millipore) treatment, or mechanical scraping following accutase treatment. Culture purity was routinely confirmed by FACS analysis to be >90% fibrocytes by confirming the CD31^−CD45^+CD34^+CXCR4^+Col I^+TSFR^high phenotype.
Invariably, a small population of tightly adherent T cells were found in the fibrocyte cultures, consistent with the previous findings. Culture viability was routinely verified to be >90%. CD4^+ T cells were enriched using the CD4 isolation cocktail (Cat #0.130-096-533, Miltenyi Biotec, San Diego, CA) followed by negative selection using a magnetic column (Cat #0.130-042-401) according to manufacturer's protocol. Fibrocytes and isolated T cells were cultured and remained untreated or were incubated with human IgG isotype control (5 μg/ml) or teprotumumab (50 μg/mL) for 7 to 9 days. Single cell suspensions were stained with anti-human CD4, CD3, CD34, MHC-2, CD80, CD86, and PD-L1 (BD Biosciences) for 30 min, rinsed and fixed with CytoPerm/CytoFix (BD). They were then stained with anti-human INFγ and IL-17A for 20 min, rinsed, and subjected to the flow cytometry analysis. Gated CD34^+CXCR4^+ fibrocytes and CD4^+CD3^+ T cells were analyzed using quadrant settings based on negative isotype staining.
In vitro studies of CD34^+ fibrocytes and T cells PBMC and GD-OF monolayers were treated in vitro with human IgG isotype control (5 μg/ml), teprotumumab (50 μg/mL), H7 (5 μg/mL), linsitinib (1 μM), bTSH (5 mIU/mL), M22 (1 μg/mL), or IGF-1 (10 nM) for the intervals indicted in the figure legends in a 37° C., 5% CO2, humidified incubator until confluent. Brefeldin A (0.66 μl/ml), (Golgi Stop™, BD Biosciences), phorbol 12-myristate 13-acetate (PMA) (50 ng/ml) and ionomycin (1 μg/mL) were added for 5 h. Cells were rinsed with flow cytometry buffer (1×PBS, 0.5% BSA, 0.1% sodium azide) and stained with the relevant monoclonal antibodies.
(§1) Real-time PCR Confluent fibrocyte and GD-OF cultures were incubated with bTSH (5 mIU/mL), teprotumumab (50 μg/mL) or linsitinib (1 μM) for the time intervals indicated, washed with PBS and RNA was extracted with the Aurum Total RNA Mini Kit (cat. #732-6820, Bio-Rad, Hercules, CA). Cellular RNA (2 μg) was reverse transcribed using QuantiTect Reverse Transcription kit (cat. #205314, Qiagen (Germantown, MD) and real-time PCR was performed using an Applied Biosystems instrument with QuantiTect SYBR Green PCR kit (cat. no. 204143; Qiagen, Frederick, MD). Primer sequences were as follows.

[2] = tested on: fibrocytes; assay: IL-10, icIL-1RA, sIL-1RA expression (PCR, ELISA)
Experimental: FIGS. 11A-11F are graphs showing teprotumumab attenuates bTSH induced IL-10 while enhancing icIL-1RA and sIL-1RA expression in fibrocytes and GD-OF. Fibrocyte cultures were treated with teprotumumab (50 μg/ml), rhSlit2 (50 ng/ml) or human Isotype IgG for 7-9 d, with bTSH (5 mIU/mL) for final 6 h. RNA was extracted and reverse transcribed. Isolated cDNA was subjected to quantitative real-time PCR for IL-10 (FIGS. 11A and 11B), icIL-1RA (FIGS. 11C and 11D). Media and cellular proteins were collected and subjected to specific ELISAs for icIL-1RA and sIL-1RA (FIGS. 11E, 11F, 11G, and 11H). PCR values were normalized to their respective GAPDH levels. icIL-1RA and sIL-1RA protein levels were normalized to cellular protein levels. Data are expressed as the mean±SD of three independent determinations. Experiments were repeated three times. **, p<0.01; ***. P<0.001.
IL-12, IL-23, IL-10, HA and BAFF ELISAs. Confluent cultures were treated with nothing or teprotumumab (50 μg/mL) for 5 d, without or with bTSH (5 mU/mL) for the intervals indicated or 72 h. Media and rinsed cell layers were homogenized in 0.1M NaCl and assayed for HA content using an ELISA kit (K-1200) from Echelon Biosciences Inc. (Salt Lake City, UT) according to manufacturer's instructions. A BAFF specific ELISA, purchased from R & D systems, was used in accordance with the manufacturer's instructions.
as §1

[3] = tested on: fibrocytes and GD-OF; assay: BAFF expression and induction by bTSH; conditions: teprotumumab 50 μg/ml or rhSlit2 50 ng/ml
Experimental: FIGS. 12A-12F are graphs showing the effect of bTSH, teprotumumab, and Slit2 on B-cell activating factor (BAFF) expression in fibrocytes and GD-OF. In FIGS. 12A and 12B, cultures were treated for the graded intervals indicated along the abscissas with bTSH (5 mIU/mL). Cellular RNA was harvested and subjected to reverse transcription by RT-PCR (FIG. 12A). Values were normalized to their respective GAPDH levels Medium was assayed for BAFF levels with an ELISA (FIG. 12B). Values were normalized to respective monolayer protein content. Data are expressed as mean f SD of triplicate determinations; *, p<0.05; **, p<0.01; ***, p<0.001. In FIGS. 12C-12F, bTSH, teprotumumab (50 μg/ml) or recombinant human Slit2 (rhSlit2) (50 ng/ml) were added to culture media for the times indicated and analyzed for BAFF mRNA levels as in FIG. 12A. In FIGS. 12F, parental GD-OF strains were sorted into pure CD34^+ and CD34^− subsets. Subsets were then cultured for 48 h, the final 6 h in the absence or presence of bTSH. Data were expressed as mean f SD of triplicate independent determinations from a single experiment representative of three conducted. *, p<0.05; **, p<0.01
IL-12, IL-23, IL-10, HA and BAFF ELISAs. Confluent cultures were treated with nothing or teprotumumab (50 μg/mL) for 5 d, without or with bTSH (5 mU/mL) for the intervals indicated or 72 h. […]

[4] = teprotumumab 50 μg/ml or rhSlit2 50 ng/ml, 7-9 d

B1: rhSlit2: recombinant human Slit2, a neural axon repellent generated by CD34− OF (protein, UniProt O94813 31-1529, looked up)
Slit homolog 2 protein: QCSCSGSTVDCHGLALRSVPRNIPRNTERLDLNGNNITRITKTDFAGLRHLRVLQLMENKISTIERGAFQDLKELERLRLNRNHLQLFPELLFLGTAKLYRLDLSENQIQAIPRKAFRGAVDIKNLQLDYNQISCIEDGAFRALRDLEVLTLNNNNITRLSVASFNHMPKLRTFRLHSNNLYCDCHLAWLSDWLRQRPRVGLYTQCMGPSHLRGHNVAEVQKREFVCSGHQSFMAPSCSVLHCPAACTCSNNIVDCRGKGLTEIPTNLPETITEIRLEQNTIKVIPPGAFSPYKKLRRIDLSNNQISELAPDAFQGLRSLNSLVLYGNKITELPKSLFEGLFSLQLLLLNANKINCLRVDAFQDLHNLNLLSLYDNKLQTIAKGTFSPLRAIQTMHLAQNPFICDCHLKWLADYLHTNPIETSGARCTSPRRLANKRIGQIKSKKFRCSAKEQYFIPGTEDYRSKLSGDCFADLACPEKCRCEGTTVDCSNQKLNKIPEHIPQYTAELRLNNNEFTVLEATGIFKKLPQLRKINFSNNKITDIEEGAFEGASGVNEILLTSNRLENVQHKMFKGLESLKTLMLRSNRITCVGNDSFIGLSSVRLLSLYDNQITTVAPGAFDTLHSLSTLNLLANPFNCNCYLAWLGEWLRKKRIVTGNPRCQKPYFLKEIPIQDVAIQDFTCDDGNDDNSCSPLSRCPTECTCLDTVVRCSNKGLKVLPKGIPRDVTELYLDGNQFTLVPKELSNYKHLTLIDLSNNRISTLSNQSFSNMTQLLTLILSYNRLRCIPPRTFDGLKSLRLLSLHGNDISVVPEGAFNDLSALSHLAIGANPLYCDCNMQWLSDWVKSEYKEPGIARCAGPGEMADKLLLTTPSKKFTCQGPVDVNILAKCNPCLSNPCKNDGTCNSDPVDFYRCTCPYGFKGQDCDVPIHACISNPCKHGGTCHLKEGEEDGFWCICADGFEGENCEVNVDDCEDNDCENNSTCVDGINNYTCLCPPEYTGELCEEKLDFCAQDLNPCQHDSKCILTPKGFKCDCTPGYVGEHCDIDFDDCQDNKCKNGAHCTDAVNGYTCICPEGYSGLFCEFSPPMVLPRTSPCDNFDCQNGAQCIVRINEPICQCLPGYQGEKCEKLVSVNFINKESYLQIPSAKVRPQTNITLQIATDEDSGILLYKGDKDHIAVELYRGRVRASYDTGSHPASAIYSVETINDGNFHIVELLALDQSLSLSVDGGNPKIITNLSKQSTLNFDSPLYVGGMPGKSNVASLRQAPGQNGTSFHGCIRNLYINSELQDFQKVPMQTGILPGCEPCHKKVCAHGTCQPSSQAGFTCECQEGWMGPLCDQRTNDPCLGNKCVHGTCLPINAFSYSCKCLEGHGGVLCDEEEDLFNPCQAIKCKHGKCRLSGLGQPYCECSSGYTGDSCDREISCRGERIRDYYQKQQGYAACQTTKKVSRLECRGGCAGGQCCGPLRSKRRKYSFECTDGSSFVDEVEKVVKCGCTRCVS
MHC II and B7 expression [1]: repressing
sIL-1RA expression (protein) ([2]; ELISA, fibrocytes): attenuated
IL-10 mRNA, basal and bTSH-provoked expression [2, 4]: downregulated
basal and bTSH-dependent icIL-1RA and sIL-1RA mRNA levels [2, 4]: upregulated
bTSH induction of BAFF [3]: similar
